This passage reports Kd, koff and kon results from PMC5704011.

Test [1] concerns the target PDGFRα (Homo sapiens) (UniProt P16234). To be noted: cited from earlier work.
Target sequence in this assay (P16234 24-528): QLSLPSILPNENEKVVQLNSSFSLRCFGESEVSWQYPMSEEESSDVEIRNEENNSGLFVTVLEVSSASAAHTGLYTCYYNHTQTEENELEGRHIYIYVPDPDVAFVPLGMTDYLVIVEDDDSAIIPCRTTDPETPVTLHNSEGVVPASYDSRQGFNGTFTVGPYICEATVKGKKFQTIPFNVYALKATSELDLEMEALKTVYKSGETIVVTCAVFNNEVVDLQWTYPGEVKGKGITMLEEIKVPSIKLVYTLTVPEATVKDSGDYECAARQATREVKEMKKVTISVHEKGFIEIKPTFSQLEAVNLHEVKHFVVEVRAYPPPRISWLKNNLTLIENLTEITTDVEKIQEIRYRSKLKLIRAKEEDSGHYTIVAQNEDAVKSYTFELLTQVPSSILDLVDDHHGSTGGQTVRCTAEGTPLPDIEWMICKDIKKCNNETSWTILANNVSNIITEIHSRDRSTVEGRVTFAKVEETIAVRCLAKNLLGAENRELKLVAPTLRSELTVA
The target is the same in test [2]. To be noted: cited from earlier work. The source holds these as a separate data set.
Target sequence in this assay (P16234 24-528): as above
Test [3] concerns the target VEGFR2 (Homo sapiens) (UniProt P35968). Put plainly: SPR. To be noted: cited from earlier work.
Test [4] concerns the target VEGFR1 (Homo sapiens) (UniProt P17948). The test is described as follows: SPR. To be noted: cited from earlier work.
Test [5] has as its target PDGFRα (Homo sapiens) (UniProt P16234). The test is described as follows: SPR; BIAcore 3000, 25 °C, CM5 chip; receptor immobilised by amine coupling (~200-500 R.U.); ligand injected at 10, 20 and 40 nM, 30 uL/min, 10 min dissociation; HBS-EP pH 7.4 (10 mM HEPES, 3 mM EDTA, 150 mM NaCl, 0.005% TWEEN-20); angiopoietin-4 reference cell subtracted; global 1:1 Langmuir fit; χ2-to-Rmax > 1.0 or negative association curves taken as no true interaction. On the technique in general: Surface plasmon resonance follows binding to a sensor surface in real time, without labels.
Target sequence in this assay (P16234 24-1089): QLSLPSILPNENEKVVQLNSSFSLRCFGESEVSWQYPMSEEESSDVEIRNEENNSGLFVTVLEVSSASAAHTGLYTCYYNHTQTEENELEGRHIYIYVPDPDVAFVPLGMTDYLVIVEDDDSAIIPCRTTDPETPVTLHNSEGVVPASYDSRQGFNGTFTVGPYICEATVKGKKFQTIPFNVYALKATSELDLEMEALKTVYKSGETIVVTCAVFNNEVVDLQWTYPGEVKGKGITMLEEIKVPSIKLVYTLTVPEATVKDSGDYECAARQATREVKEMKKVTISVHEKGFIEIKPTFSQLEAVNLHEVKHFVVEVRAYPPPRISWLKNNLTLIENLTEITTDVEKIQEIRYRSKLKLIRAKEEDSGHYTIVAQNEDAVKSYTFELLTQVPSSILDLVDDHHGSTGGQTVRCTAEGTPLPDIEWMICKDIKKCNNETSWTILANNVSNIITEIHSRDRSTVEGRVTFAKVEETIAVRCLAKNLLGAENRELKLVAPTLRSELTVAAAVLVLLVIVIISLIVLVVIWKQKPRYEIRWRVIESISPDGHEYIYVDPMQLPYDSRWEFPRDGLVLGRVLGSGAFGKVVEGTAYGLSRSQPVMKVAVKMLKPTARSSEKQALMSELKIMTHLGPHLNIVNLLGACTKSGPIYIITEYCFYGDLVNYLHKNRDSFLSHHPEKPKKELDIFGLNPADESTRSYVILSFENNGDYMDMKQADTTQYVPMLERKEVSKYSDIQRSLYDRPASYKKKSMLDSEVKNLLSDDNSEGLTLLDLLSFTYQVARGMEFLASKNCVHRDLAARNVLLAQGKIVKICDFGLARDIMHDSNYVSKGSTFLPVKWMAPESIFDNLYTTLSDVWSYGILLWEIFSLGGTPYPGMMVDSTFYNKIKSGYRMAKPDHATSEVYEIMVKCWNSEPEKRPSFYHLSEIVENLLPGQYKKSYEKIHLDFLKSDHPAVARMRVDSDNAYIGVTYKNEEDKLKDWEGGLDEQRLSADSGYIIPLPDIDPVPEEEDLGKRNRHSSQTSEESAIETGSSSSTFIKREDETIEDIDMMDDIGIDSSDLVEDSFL

Test [6] addresses human recombinant PDGFRβ (human) (UniProt P09619). The test is described as above.
Test [7] concerns the target VEGFR2 (Homo sapiens) (UniProt P35968). Described as above.
Target sequence in this assay (P35968 20-764): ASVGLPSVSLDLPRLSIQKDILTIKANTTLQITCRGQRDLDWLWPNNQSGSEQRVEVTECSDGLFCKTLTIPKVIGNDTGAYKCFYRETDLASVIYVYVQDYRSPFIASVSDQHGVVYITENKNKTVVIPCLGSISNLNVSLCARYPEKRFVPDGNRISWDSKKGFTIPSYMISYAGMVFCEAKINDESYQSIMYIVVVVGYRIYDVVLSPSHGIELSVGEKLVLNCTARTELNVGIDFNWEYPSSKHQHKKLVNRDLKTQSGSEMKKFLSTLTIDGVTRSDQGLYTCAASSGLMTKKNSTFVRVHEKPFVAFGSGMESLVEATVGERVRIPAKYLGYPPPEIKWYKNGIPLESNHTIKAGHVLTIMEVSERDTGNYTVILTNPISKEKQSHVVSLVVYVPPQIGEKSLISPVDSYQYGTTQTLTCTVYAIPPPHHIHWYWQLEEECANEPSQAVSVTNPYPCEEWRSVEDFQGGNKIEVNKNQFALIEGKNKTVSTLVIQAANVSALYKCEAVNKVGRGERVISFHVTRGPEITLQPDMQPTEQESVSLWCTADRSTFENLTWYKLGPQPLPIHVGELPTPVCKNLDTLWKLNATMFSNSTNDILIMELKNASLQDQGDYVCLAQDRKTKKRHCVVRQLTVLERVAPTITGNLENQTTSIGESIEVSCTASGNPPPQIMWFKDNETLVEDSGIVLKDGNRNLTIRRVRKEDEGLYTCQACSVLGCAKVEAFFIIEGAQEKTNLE
In test [8] the target is VEGFR1 (Homo sapiens) (UniProt P17948). The description is as above.
Target sequence in this assay (P17948 27-758): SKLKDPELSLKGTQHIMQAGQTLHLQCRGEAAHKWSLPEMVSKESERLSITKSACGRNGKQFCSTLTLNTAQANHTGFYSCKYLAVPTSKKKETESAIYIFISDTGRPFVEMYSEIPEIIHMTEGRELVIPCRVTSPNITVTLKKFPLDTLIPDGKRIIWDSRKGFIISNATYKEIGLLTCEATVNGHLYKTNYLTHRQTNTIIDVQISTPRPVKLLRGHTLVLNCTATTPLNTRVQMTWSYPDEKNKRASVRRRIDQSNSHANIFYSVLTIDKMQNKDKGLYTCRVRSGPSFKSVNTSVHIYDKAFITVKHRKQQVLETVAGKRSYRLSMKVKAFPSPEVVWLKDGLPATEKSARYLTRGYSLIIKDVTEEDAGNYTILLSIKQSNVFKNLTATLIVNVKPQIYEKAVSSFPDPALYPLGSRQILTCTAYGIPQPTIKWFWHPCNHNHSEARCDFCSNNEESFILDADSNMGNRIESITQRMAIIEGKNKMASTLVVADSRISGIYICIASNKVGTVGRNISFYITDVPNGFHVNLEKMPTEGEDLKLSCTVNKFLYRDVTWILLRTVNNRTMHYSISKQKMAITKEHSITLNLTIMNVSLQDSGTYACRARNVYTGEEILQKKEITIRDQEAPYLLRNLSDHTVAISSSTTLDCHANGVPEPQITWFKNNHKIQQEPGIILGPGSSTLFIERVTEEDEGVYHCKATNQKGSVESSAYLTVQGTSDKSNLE
Test [9] has as its target VEGFR2 (Homo sapiens) (UniProt P35968). The test is described as follows: SPR; BIAcore 3000, 25 °C, CM5 chip; receptor immobilised by amine coupling (~200-500 R.U.); ligand injected at 40, 20 and 10 nM in HBS-EP pH 7.4 (10 mM HEPES, 3 mM EDTA, 150 mM NaCl, 0.005% TWEEN-20); angiopoietin-4 reference cell subtracted; global 1:1 Langmuir fit; χ^2-to-Rmax < 1.0 taken as a true interaction.
Target sequence in this assay (P35968 20-764): as the sequence (P35968 20-764) above

The target of test [10] is VEGFR1 (Homo sapiens) (UniProt P17948). Described as above.
Target sequence in this assay (P17948 27-758): as the sequence (P17948 27-758) above

Read-outs that look alike come from different tables or passages of the source.

Chain of human recombinant PDGFRβ (human) (P09619 33-1106): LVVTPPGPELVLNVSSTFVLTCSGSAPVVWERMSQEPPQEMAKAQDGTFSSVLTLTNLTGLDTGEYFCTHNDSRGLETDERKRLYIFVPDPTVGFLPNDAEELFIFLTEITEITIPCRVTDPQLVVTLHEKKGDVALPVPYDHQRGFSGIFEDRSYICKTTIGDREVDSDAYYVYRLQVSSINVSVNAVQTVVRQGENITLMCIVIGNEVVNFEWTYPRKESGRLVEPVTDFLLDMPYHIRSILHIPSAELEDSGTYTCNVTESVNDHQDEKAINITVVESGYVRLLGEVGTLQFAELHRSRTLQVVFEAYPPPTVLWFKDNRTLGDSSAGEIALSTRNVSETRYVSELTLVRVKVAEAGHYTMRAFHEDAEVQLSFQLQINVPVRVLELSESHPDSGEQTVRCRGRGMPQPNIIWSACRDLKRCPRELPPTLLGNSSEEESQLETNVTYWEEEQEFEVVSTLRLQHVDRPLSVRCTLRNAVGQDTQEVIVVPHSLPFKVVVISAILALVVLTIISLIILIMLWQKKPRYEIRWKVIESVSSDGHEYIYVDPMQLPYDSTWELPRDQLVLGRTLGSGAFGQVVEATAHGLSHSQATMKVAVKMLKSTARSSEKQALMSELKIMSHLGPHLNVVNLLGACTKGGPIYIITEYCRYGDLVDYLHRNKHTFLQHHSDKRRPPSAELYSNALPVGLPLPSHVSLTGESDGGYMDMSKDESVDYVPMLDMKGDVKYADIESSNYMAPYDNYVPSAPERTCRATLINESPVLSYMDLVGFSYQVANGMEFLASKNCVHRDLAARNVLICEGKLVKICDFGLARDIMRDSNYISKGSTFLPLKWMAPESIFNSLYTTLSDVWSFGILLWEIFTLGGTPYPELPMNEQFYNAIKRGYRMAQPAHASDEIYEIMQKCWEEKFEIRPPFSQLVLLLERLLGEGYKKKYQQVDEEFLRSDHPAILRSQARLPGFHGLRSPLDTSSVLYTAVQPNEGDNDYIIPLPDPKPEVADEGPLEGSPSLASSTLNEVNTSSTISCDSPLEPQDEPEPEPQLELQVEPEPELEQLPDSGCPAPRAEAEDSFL
Chain of VEGF-A (P15692 whole entry): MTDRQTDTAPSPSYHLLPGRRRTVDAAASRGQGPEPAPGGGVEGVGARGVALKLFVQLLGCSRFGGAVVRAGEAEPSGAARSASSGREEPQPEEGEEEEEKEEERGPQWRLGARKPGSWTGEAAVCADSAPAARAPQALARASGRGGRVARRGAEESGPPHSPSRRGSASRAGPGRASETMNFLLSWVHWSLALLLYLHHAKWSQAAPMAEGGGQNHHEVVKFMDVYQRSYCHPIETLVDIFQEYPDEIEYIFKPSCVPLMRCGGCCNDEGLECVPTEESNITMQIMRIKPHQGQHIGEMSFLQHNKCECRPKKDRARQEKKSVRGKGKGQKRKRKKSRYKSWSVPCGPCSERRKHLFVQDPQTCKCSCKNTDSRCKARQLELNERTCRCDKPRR

The Kd is the free concentration of one partner at which half of the binding sites on the other are occupied at equilibrium, for simple one-to-one binding. On to PDGF-AA (from UniProt P04085), for which the dissociation constant Kd in [1] is 134 nM.

On to PDGF-BB (from UniProt P01127), for which the dissociation constant (Kd) in test [2] is 150 nM.

For VEGF-A (from UniProt P15692), the Kd in test [3] is 0.052 nM; in test [4], 0.0075 nM.

As a reminder, the koff is a measure of how fast the partners let go of each other. In general, kon refers to the rate constant with which the complex forms. Regarding “human recombinant PDGF-AA (from UniProt P04085 87-211) (ligand)”, in [5], the koff is 0.00045 s⁻¹ and the kon was 680 M⁻¹ s⁻¹.

In test [5], “human recombinant PDGF-AB (from UniProt P04085 87-211; P01127 82-190) (ligand)” registered a koff of 0.001 s⁻¹ and a kon of 1200 M⁻¹ s⁻¹. In addition, in test [6], the koff was found to be 0.0029 s⁻¹ and the kon stood at 1300 M⁻¹ s⁻¹.

As for “human recombinant VEGFA (from UniProt P15692 1-395) (ligand)”, the koff in test [7] came out at 9.5e-06 s⁻¹; in test [6], 4e-06 s⁻¹; in test [8] it was 4e-07 s⁻¹. Further, the kon in test [7] was 970000 M⁻¹ s⁻¹; in test [6] it was 12000 M⁻¹ s⁻¹; in test [8], 400000 M⁻¹ s⁻¹; in [9] it was 1e+06 M⁻¹ s⁻¹. Besides, the Kd in test [9] is 0.0098 nM; in test [10], 0.001 nM.
